Assay results: patent US6384302

Assays:
Test in all cases: cell-based or functional assay
[1] = target: Helicoverpa zea (H. zea) midgut trypsin (Helicoverpa zea)
bovine trypsin (bovine) = bovine trypsin (bovine) (UniProt P00760)
[2] = target: trypsin (source not stated)

SA = Specific Activity in IU/mg protein (IU/mg protein) [1]	SA = Specific Activity in IU/mg protein (IU/mg protein) (bovine trypsin (bovine))	IA = Inhibitory Activity in IUs (BAPNA hydrolysis) [1] [IU]	IA = Inhibitory Activity in IUs (BAPNA hydrolysis) (bovine trypsin (bovine)) [IU]	inhibition activity after heating at 70° C. for 5 minutes [2] [IU/mg TI]	inhibition activity before heating [2] [IU/mg TI]	Substance
0.079	0.038	0.245	0.119	3.7	2.2	Crude P. macroloba seed extract
3.93	2.78	7.86	5.57	–	–	P. macroloba large trypsin inhibitor (PmLTI)
14.2	50.9	8.54	30.6	–	–	P. macroloba small trypsin inhibitor (PmSTI)

Continued, substance first:

Substance	SA = Specific Activity in IU/mg protein (IU/mg protein) [1]	SA = Specific Activity in IU/mg protein (IU/mg protein) (bovine trypsin (bovine))	IA = Inhibitory Activity in IUs (BAPNA hydrolysis) [1] [IU]	IA = Inhibitory Activity in IUs (BAPNA hydrolysis) (bovine trypsin (bovine)) [IU]	inhibition activity after heating at 70° C. for 5 minutes [2] [IU/mg TI]	inhibition activity before heating [2] [IU/mg TI]
Bowman-Birk trypsin inhibitor (soybean) (from UniProt P01055 40-110)	2.1	5.03	–	–	–	–
Kunitz trypsin inhibitor (soybean) (from UniProt P01070 25-205)	0.845	1.02	–	–	–	–
Affinity purified P. macroloba trypsin inhibitor (PmTI)	3.73	2.48	7.46	4.96	–	–
